From the supplement of paper PMC9732359
± gives the uncertainty stated by the source.

Assay: protein stability index of a GFP-peptide fusion (yeast GPS) (PSI 1-4); higher = more stable; sorted into four equal gates, so the index is relative within each strain
How it was run: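 Plasmids isolated from each sorting gate were PCR-amplified and Illumina-sequenced, and barcodes assigned the reads to strains. The gates, four of equal size, were set by GFP/Cherry fluorescence ratio on mid-log cultures in leucine-free medium. These cultures were yeast carrying a pooled library of tiled 17-residue yeast protein peptides fused downstream of GFP on a plasmid that also expresses Cherry. The protein stability index is the sum of every gate's read frequency times its gate number.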

Sequence	protein stability index (doa10∆)	protein stability index (pdr5∆)	protein stability index (san1∆)	protein stability index (ubr1∆)
SNAAGADDAISMHLLKD [SRB8]	3.17 ± 0.1	2.49 ± 0.065	3.07 ± 0.099	2.76 ± 0.055
IRSERFKVARELKTEAA [ITC1]	–	2.25 ± 0.25	–	–
FARLSRLLSLWEVFQMA [RPC82]	1.9 ± 0.11	1.97 ± 0.096	2.86 ± 0.13	2.08 ± 0.051
DTFYMNVESVGSIPVDQ [RPB3]	2.9 ± 0.075	2.43 ± 0.056	2.67 ± 0.078	2.2 ± 0.12
IIERYIKSKADAWVSAA [PRP8]	1.86 ± 0.082	1.88 ± 0.072	2.39 ± 0.11	2.09 ± 0.12
LLREKQRVRNMRELGLI [YOR098C/NUP1]	1.19 ± 0.19	1.14 ± 0.13	–	1.13 ± 0.19
GINNLSEIWDVSRGQSA [PRP8]	3 ± 0.13	2.67 ± 0.12	2.74 ± 0.29	2.26 ± 0.073
MKNKAETTTEEDSENPS [ITC1]	3.31 ± 0.19	3.27 ± 0.14	3.03 ± 0.13	3.31 ± 0.15
QLIKQSIKNNVAMCFVI [SNU114]	1.37 ± 0.16	1.69 ± 0.14	1.24 ± 0.2	–
VSLIKKYKLISRIVEIF [YML103C/NUP188]	1.34 ± 0.054	1.94 ± 0.049	1.64 ± 0.067	1.46 ± 0.054
MPFWKFFMKNFPFVLKV [SRB8]	2.8 ± 0.23	1.99 ± 0.11	2.03 ± 0.12	2.04 ± 0.1
ELPKKLLNLPPFQVSSF [SRB8]	1.77 ± 0.039	1.85 ± 0.034	1.9 ± 0.055	1.78 ± 0.041
NSLKETLQDFHLIFSNA [SNF2]	2.85 ± 0.072	2.82 ± 0.068	2.27 ± 0.13	2.44 ± 0.092
EDEEEEEEVTDQLEDLR [QCR6]	–	3.52 ± 0.28	3.47 ± 0.083	3.25 ± 0.089
REYLEEYKSLFVVGVDN [RPP0]	3.11 ± 0.075	2.55 ± 0.087	2.91 ± 0.1	3.24 ± 0.071
DFIDTATRHVLMRQGVL [RPS3]	3.24 ± 0.055	3.06 ± 0.059	3.38 ± 0.054	2.98 ± 0.04
RPKKITGWITQSTPVLL [RPN1]	2.21 ± 0.048	2.11 ± 0.043	2.3 ± 0.057	2.18 ± 0.035
SQLAKWKTAEEVSALVR [PRP8]	1.26 ± 0.17	–	–	–
SKKISNTAAALVSLLDE [YAR002W/NUP60]	2.9 ± 0.095	2.67 ± 0.086	2.92 ± 0.052	2.78 ± 0.07
NTRKNMSISLESSKALA [DIS3]	1.96 ± 0.082	2.24 ± 0.1	1.96 ± 0.13	2.08 ± 0.078

Sequence	protein stability index (doa10∆)	protein stability index (pdr5∆)	protein stability index (san1∆)	protein stability index (ubr1∆)
QNAKLLANLIRDALRNI [RRP6]	2.17 ± 0.055	2.18 ± 0.062	2.36 ± 0.084	2.23 ± 0.043
LYEKLKQEIMMSDLFTF [ISW2]	2.69 ± 0.099	2.34 ± 0.063	2.14 ± 0.1	2.64 ± 0.06
VKTKTIELIDYDKLPAG [RET1]	2.98 ± 0.12	3.42 ± 0.13	2.67 ± 0.19	2.95 ± 0.082
NNNSSNEKEQLSFINPK [SEC65]	2.83 ± 0.045	3.11 ± 0.052	2.8 ± 0.034	2.92 ± 0.036
VPEFFQTANEKHITVRL [SRP14]	3.02 ± 0.1	2.67 ± 0.11	3.01 ± 0.12	2.56 ± 0.1
GIKVLPETCLFVSYFGK [YML103C/NUP188]	2.7 ± 0.055	2.42 ± 0.038	2.44 ± 0.074	2.68 ± 0.039
DPIWQHQSLGPDGLGEV [RET1]	2.96 ± 0.11	3.13 ± 0.11	3.04 ± 0.11	3.35 ± 0.15
WAVKEGPLAEEPIYGVQ [SNU114]	2.8 ± 0.067	2.53 ± 0.079	2.76 ± 0.061	1.8 ± 0.047
LPPPEDVAFLKTAYSIY [RPN1]	2.4 ± 0.06	2.36 ± 0.052	2.46 ± 0.069	2.47 ± 0.053
LSKVAALSGNEGDASPF [RPB2]	1.91 ± 0.046	2.79 ± 0.052	2.15 ± 0.083	2.59 ± 0.071
KMFIQRILAMCVKNHGQ [YCS4]	1.69 ± 0.062	2.1 ± 0.055	2.22 ± 0.071	1.92 ± 0.057
KLSISNAASQQPTPRSA [GAL11]	2.57 ± 0.083	2.61 ± 0.081	2.73 ± 0.058	2.91 ± 0.049
MATNRADTLDPALLRPG [RPT3]	–	3.31 ± 0.18	–	2.79 ± 0.28
EAVIDEKLEVIADELMK [ITC1]	–	–	3.21 ± 0.25	3.27 ± 0.12
RIFKITEKLSPLASEES [YGL100W/SEH1]	2.82 ± 0.056	2.5 ± 0.055	2.41 ± 0.066	2.57 ± 0.032
VDSLDPFSEGVTFSVMP [SMC4]	2.92 ± 0.086	2.39 ± 0.065	2.2 ± 0.13	3.1 ± 0.072
VPIKSSKSGRIFALVFS [RPN13]	2.57 ± 0.14	2.41 ± 0.091	2.41 ± 0.096	2.63 ± 0.1
LIPTIFRYITTWENEFL [PRP8]	2.38 ± 0.056	2.04 ± 0.047	1.75 ± 0.054	2.21 ± 0.034
IHLKQKLSESLDTRKEL [SMC3]	–	3.03 ± 0.24	3.4 ± 0.18	3.49 ± 0.15
PLNKPLLTEELAKSGST [TAF14]	2.25 ± 0.068	2.24 ± 0.064	2.94 ± 0.072	2.39 ± 0.054
